The assay has as its target Claudin 18 splice variant 2 (CLDN18.2) (human). In words: cell-based or functional assay.

In turn, IMAB362 (antibody) registered an in vitro EC50 concentration, CDC on CLDN18.2-transfected CHO-K1 cells of 0.5 µg/mL; an in vitro EC80-100, total cytotoxicity assay on NUGC-4 cells with healthy donor PBMCs (E:T 40:1) and 25% serum of 200 µg/mL; a lysis rate, CDC on CLDN18.2-transfected CHO-K1 cells, pooled sera from healthy controls with 0.5 µg/ml IMAB362 of 64.5%; a lysis rate, CDC on CLDN18.2-transfected CHO-K1 cells, pre-infusion serum of patient 0204 with 0.5 µg/ml fresh IMAB362 of 93.9%. Moreover, the specific killing of NUGC-4 cells by IMAB362 in patient serum 28-32 days after administration, all dose groups is greater than 48%.

The values are drawn from patent EP3670537A1.
